The values that follow come from patent publication CN111434681A.

Several values for one entry are separate records, joined by “and”; a condition that tells them apart may be missing. Equal values may be shown once.

Assay [1] deals with H7N9病毒的HA蛋白(购自ACROBiosystems) (H7N9 influenza virus).
The target is the same in assay [2]. The source holds these as a separate data set.
Assay [3] deals with H7N9病毒 A/Anhui/1/2013 (血凝素HA on virus) (influenza A virus A/Anhui/1/2013 (H7N9)). Description: cell-based or functional assay.

B1: 抗H7N9全人源单克隆抗体6J15 (antibody, V domains shown)
VH: QVQLVESGAEVKKPGASVKVSCKASGYNIFTSYDINWVRQATGQGLEWMGWMNPDSGDTGFAQKFQGRVTMTRNTSITTAYMELSSLTSEDTAVYYCATGNADCSGSCYNWFDPWGQGTLVTVSS
VL: SSELTQDPAVSVALGQTVRITCQGDRLRSTYYASWYQQKPGQAPVLVIYGKNNRPSGIPDRFSGSSSGNTASLTITGAQAEDEADYYCNSRDTSGYHLVFGGGTKLTVLV
For B1, the Kd in assay [1] amounted to 2.06 nM. For the same molecule, in assay [2], the 450nm (OD) was 2.25 OD 450nm and 1.85 OD 450nm and 1.78 OD 450nm. In assay [3], this molecule displayed a 微量中和-ELISA实验 (MDCK cells, 100TCID50 virus), IC50 of 0.35 µg/mL.
